Our source for the Kd, koff and kon values is US20260167728A1 (published 2026).

Holding throughout (assay): SPR Biacore 37 C
For orientation: In SPR one partner is held on a chip, and binding of the other changes the refractive index at the surface.

The target in one test is T1, cynomolgus monkey CD3 (cynomolgus monkey, UniProt Q95LI5 22-117).
T1 construct: also called Cyno CD3
T1 sequence: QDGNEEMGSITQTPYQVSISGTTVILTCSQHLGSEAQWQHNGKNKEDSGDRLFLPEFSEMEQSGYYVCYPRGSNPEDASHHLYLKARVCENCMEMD

A further test addresses human CD3 (human, UniProt P07766 23-126).
In a further test the target is T2, human EGFR (human, UniProt P00533 25-645, limits assumed).
T2 construct: on HT-29 cells in the cytotoxicity assay; also called epidermal growth factor receptor

The target of another test is T3, cynomolgus monkey EGFR (cynomolgus monkey, UniProt A0A2K5WK39 25-645).
T3 construct: also called Cyno EGFR

human CD3, sequence (P07766 23-126 limits assumed): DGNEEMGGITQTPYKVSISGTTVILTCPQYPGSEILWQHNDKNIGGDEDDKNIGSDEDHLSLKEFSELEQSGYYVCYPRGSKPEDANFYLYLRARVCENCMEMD

B1: AMX-525 (uTCE) (bispecific antibody)
chain: GTSESATPESDIQMTQSPSSLSASVGDRVTITCQASQDISNYLNWYQQKPGKAPKLLIYDASNLETGVPSRFSGSGSGTDFTFTISSLQPEDIATYYCQHFDHLPLAFGQGTKVEIKSESATPESGPGTSPGATPESGPGTSESATPQVQLQESGPGLVKPSETLSLTCTVSGGSVSSGDYYWTWIRQPPGKGLEWIGHIYYSGNTNYNPSLKSRVTISVDTSKNQFSLKLSSVTAADTAVYYCARDRVTGAFDIWGQGTLVTVSSGGGGSELVVTQEPSLTVSPGGTVTLTCRSSNGAVTSSNYANWVQQKPGQAPRGLIGGTNKRAPGTPARFSGSLLEGKAALTLSGVQPEDEAVYYCALWYPNLWVFGGGTKLTVLSESATPESGPGTSPGATPESGPGTSESATPEVQLVESGGGIVQPGGSLRLSCAASGFTFSTYAMNWVRQAPGKGLEWVGRIRTKRNDYATYYADSVKGRFTISRDDSKNTLYLQMNSLKTEDTAVYYCVRHENFGNSYVSWFAHWGQGTLVTVSSGTATPESGPG
notes: Fully unmasked metabolite; also called unmasked AMX-525; not shown: remnant of cleaved RSR-3213
On to B1, for which the Kd with cynomolgus monkey CD3 was 28 nM; in the test with human CD3, 29.2 nM; with human EGFR, 0.034 nM; with cynomolgus monkey EGFR, 0.042 nM. Also, the koff was 0.14 s⁻¹ with cynomolgus monkey CD3, 0.128 s⁻¹ in the test with human CD3, 0.00023 s⁻¹ with human EGFR and 0.00017 s⁻¹ with cynomolgus monkey EGFR. In addition, the kon in the test with cynomolgus monkey CD3 stood at 5e+06 M⁻¹ s⁻¹; with human CD3, 4.4e+06 M⁻¹ s⁻¹; with human EGFR, 6.45e+06 M⁻¹ s⁻¹; with cynomolgus monkey EGFR it was 4.1e+06 M⁻¹ s⁻¹.

B2: AMX-525 (bispecific antibody)
chain: ASSATPESGPGTSTEPSEGSAPGTSESATPESGPGSGPGTSESATPGTSESATPESGPGSEPATSGSETPGTSESATPESGPGTSTEPSEGSAPGSPAGSPTSTEEGTSESATPESGPGSEPATSGSETPGTSESATPESGPGSPAGSPTSTEEGSPAGSPTSTEEGTSTEPSEGSAPGTSESATPESGPGTSESATPESGPGTSESATPESGPGSEPATSGSETPGSEPATSGSETPGSPAGSPTSTEEGTSTEPSEGSAPGTSTEPSEGSAPGSEPATSGSETPGTSESATPEAGRSASHTPAGLTGPGTSESATPESDIQMTQSPSSLSASVGDRVTITCQASQDISNYLNWYQQKPGKAPKLLIYDASNLETGVPSRFSGSGSGTDFTFTISSLQPEDIATYYCQHFDHLPLAFGQGTKVEIKSESATPESGPGTSPGATPESGPGTSESATPQVQLQESGPGLVKPSETLSLTCTVSGGSVSSGDYYWTWIRQPPGKGLEWIGHIYYSGNTNYNPSLKSRVTISVDTSKNQFSLKLSSVTAADTAVYYCARDRVTGAFDIWGQGTLVTVSSGGGGSELVVTQEPSLTVSPGGTVTLTCRSSNGAVTSSNYANWVQQKPGQAPRGLIGGTNKRAPGTPARFSGSLLEGKAALTLSGVQPEDEAVYYCALWYPNLWVFGGGTKLTVLSESATPESGPGTSPGATPESGPGTSESATPEVQLVESGGGIVQPGGSLRLSCAASGFTFSTYAMNWVRQAPGKGLEWVGRIRTKRNDYATYYADSVKGRFTISRDDSKNTLYLQMNSLKTEDTAVYYCVRHENFGNSYVSWFAHWGQGTLVTVSSGTATPESGPGEAGRSASHTPAGLTGPATPESGPGTSESATPESGPGSPAGSPTSTEEGTSESATPESGPGSEPATSGSETPGTSESATPESGPGTSTEPSEGSAPGTSTEPSEGSAPGTSTEPSEGSAPGTSTEPSEGSAPGTSTEPSEGSAPGTSTEPSEGSAPGSPAGSPTSTEEGTSTEPSEGSAPGTSESATPESGPGSEPATSGSETPGTSESATPESGPGSEPATSGSETPGTSESATPESGPGTSTEPSEGSAPGTSESATPESGPGSPAGSPTSTEEGSPAGSPTSTEEGSPAGSPTSTEEGTSESATPESGPGTSTEPSEGSAPGTSESATPESGPGSEPATSGSETPGTSESATPESGPGSEPATSGSETPGTSESATPESGPGTSTEPSEGSAPGSPAGSPTSTEEGTSESATPESGPGSEPATSGSETPGTSESATPESGPGSPAGSPTSTEEGSPAGSPTSTEEGTSTEPSEGSAPGTSESATPESGPGTSESATPESGPGTSPSATPESGPGSEPATSGSETPGSEPATSGSETPGSPAGSPTSTEEGTSTEPSEGSAPGTSTEPSEGSAPGSEPATSGSETPGTSESAGEPEA
notes: Fully masked paTCE; also called AC4230; EGFR.37/CD3.318 paTCE
As for B2, the Kd in the test with cynomolgus monkey CD3 was 167 nM; in the test with human CD3 it was 57 nM; with human EGFR it was 0.736 nM; with cynomolgus monkey EGFR, 1.05 nM. The koff with cynomolgus monkey CD3 stood at 0.18 s⁻¹; in the test with human CD3, 0.18 s⁻¹; with human EGFR, 0.00077 s⁻¹; with cynomolgus monkey EGFR, 0.001 s⁻¹. In addition, the kon with cynomolgus monkey CD3 is 1.1e+06 M⁻¹ s⁻¹; in the test with human CD3, 3.1e+06 M⁻¹ s⁻¹; in the test with human EGFR it was 1.04e+06 M⁻¹ s⁻¹; in the test with cynomolgus monkey EGFR, 910000 M⁻¹ s⁻¹.

For orientation: Kd means the constant that tells how readily two partners part at equilibrium. The term koff denotes the rate constant with which the complex falls apart. For orientation: kon means the second-order rate constant of association.
